The source of these data is PMC9192595, “Dynamic interaction of BRCA2 with telomeric G-quadruplexes underlies telomere replication homeostasis”.

Series [1] addresses T1, BRCA2OB (human, UniProt P51587 2665-3197).
T1 sequence: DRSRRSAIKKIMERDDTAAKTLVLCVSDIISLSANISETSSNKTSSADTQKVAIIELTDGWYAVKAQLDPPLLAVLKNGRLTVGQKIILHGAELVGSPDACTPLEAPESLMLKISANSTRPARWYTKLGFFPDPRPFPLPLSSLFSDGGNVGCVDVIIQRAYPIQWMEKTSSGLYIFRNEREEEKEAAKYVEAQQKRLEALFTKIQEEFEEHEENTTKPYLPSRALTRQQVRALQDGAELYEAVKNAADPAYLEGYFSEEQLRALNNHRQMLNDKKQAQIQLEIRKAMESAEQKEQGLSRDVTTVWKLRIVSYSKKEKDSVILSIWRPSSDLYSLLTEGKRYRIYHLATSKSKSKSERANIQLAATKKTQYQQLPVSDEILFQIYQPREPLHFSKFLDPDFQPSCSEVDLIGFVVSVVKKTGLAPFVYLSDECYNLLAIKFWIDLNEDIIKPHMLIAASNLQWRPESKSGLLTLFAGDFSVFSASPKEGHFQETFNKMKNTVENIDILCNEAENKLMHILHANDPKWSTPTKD
The series can be described thus: EMSA; 100 mM KCl; EMSA: 10 nM probe, 50 mM Tris-HCl pH 7.5, 100 mM KCl, 2 mM b-ME, 10% glycerol, probe pre-incubated 37 C, gel 4 C (RAD51: +1 mM MgCl2, 2 mM ATP); smFRET: 50 mM Tris-HCl pH 7.9, 100 mM KCl, 20 mM NaCl, 1 mM DTT, 0.1 mg/ml BSA, 9% glycerol, 37 C. The conditions noted are these: protein: recombinant; tags: N-MBP, C-6xHis; label: 5' 32P; G-triplex / G3:G4. (In general: Mobility shift assays separate free from complexed probe on a gel.)

Series [2] concerns the target T1, BRCA2OB. The series is described as above. The conditions noted are these: protein: recombinant; tags: N-MBP, C-6xHis; label: 5' 32P; intramolecular G4.
Series [3] addresses T1, BRCA2OB. The series can be described thus: smFRET; 1 uM BRCA2OB; EMSA: 10 nM probe, 50 mM Tris-HCl pH 7.5, 100 mM KCl, 2 mM b-ME, 10% glycerol, probe pre-incubated 37 C, gel 4 C (RAD51: +1 mM MgCl2, 2 mM ATP); smFRET: 50 mM Tris-HCl pH 7.9, 100 mM KCl, 20 mM NaCl, 1 mM DTT, 0.1 mg/ml BSA, 9% glycerol, 37 C. The conditions noted are these: protein: recombinant; tags: N-MBP, C-6xHis; label: 3' Cy3; stem 5' Cy5, 3' biotin.

For series [4], the target named is T1, BRCA2OB. As to the kind of experiment: EMSA; EMSA: 10 nM probe, 50 mM Tris-HCl pH 7.5, 100 mM KCl, 2 mM b-ME, 10% glycerol, probe pre-incubated 37 C, gel 4 C (RAD51: +1 mM MgCl2, 2 mM ATP); smFRET: 50 mM Tris-HCl pH 7.9, 100 mM KCl, 20 mM NaCl, 1 mM DTT, 0.1 mg/ml BSA, 9% glycerol, 37 C. The conditions noted are these: protein: recombinant; tags: N-MBP, C-6xHis; label: 5' 32P.

The next series has as its target T2, GST-B2-9 (human, UniProt P51587 3189-3418).
T2 sequence: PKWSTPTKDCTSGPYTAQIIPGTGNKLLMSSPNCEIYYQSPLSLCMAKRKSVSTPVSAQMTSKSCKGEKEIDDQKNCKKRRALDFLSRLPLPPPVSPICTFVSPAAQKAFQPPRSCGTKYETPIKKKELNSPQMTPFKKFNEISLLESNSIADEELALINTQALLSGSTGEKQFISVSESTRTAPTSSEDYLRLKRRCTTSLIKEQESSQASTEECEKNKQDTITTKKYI
The series can be described thus: EMSA; 150 mM KCl; EMSA: 10 nM probe, 50 mM Tris-HCl pH 7.5, 100 mM KCl, 2 mM b-ME, 10% glycerol, probe pre-incubated 37 C, gel 4 C (RAD51: +1 mM MgCl2, 2 mM ATP); smFRET: 50 mM Tris-HCl pH 7.9, 100 mM KCl, 20 mM NaCl, 1 mM DTT, 0.1 mg/ml BSA, 9% glycerol, 37 C. Particulars: protein: recombinant; tags: GST; label: 32P.

For another series, the target named is T3, GST-B2-7 (human, UniProt P51587 2438-2824).
T3 sequence: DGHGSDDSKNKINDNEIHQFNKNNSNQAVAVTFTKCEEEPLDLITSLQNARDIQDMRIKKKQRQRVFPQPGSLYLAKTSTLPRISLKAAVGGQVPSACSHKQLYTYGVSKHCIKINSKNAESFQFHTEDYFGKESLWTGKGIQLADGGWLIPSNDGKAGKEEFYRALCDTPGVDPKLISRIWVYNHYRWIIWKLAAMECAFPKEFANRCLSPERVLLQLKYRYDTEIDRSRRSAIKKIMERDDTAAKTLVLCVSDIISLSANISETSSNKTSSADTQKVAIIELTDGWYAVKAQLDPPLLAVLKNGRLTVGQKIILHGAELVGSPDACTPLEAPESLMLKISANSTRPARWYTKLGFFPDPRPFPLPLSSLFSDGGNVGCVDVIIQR
The description is as above. The conditions noted are these: protein: recombinant; tags: GST; label: 32P.

The target of the next series is T4, GST-B2-8 (human, UniProt P51587 2780-3197).
T4 sequence: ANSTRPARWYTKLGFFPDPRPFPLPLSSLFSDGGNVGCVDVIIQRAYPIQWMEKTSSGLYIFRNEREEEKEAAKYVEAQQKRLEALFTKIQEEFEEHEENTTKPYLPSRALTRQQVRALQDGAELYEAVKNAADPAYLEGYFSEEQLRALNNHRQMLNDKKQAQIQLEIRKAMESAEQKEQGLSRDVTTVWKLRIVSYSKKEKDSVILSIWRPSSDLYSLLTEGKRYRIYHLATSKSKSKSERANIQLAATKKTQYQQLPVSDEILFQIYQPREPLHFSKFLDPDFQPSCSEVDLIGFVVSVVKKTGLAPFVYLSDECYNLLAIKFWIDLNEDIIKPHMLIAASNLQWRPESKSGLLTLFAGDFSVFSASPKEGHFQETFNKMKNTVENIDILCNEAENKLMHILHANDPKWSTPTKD
Described as above. Particulars: protein: recombinant; tags: GST; label: 32P.

Series [5] has as its target T1, BRCA2OB. The series can be described thus: EMSA; 100 mM KCl; EMSA: 10 nM probe, 50 mM Tris-HCl pH 7.5, 100 mM KCl, 2 mM b-ME, 10% glycerol, probe pre-incubated 37 C, gel 4 C (RAD51: +1 mM MgCl2, 2 mM ATP); smFRET: 50 mM Tris-HCl pH 7.9, 100 mM KCl, 20 mM NaCl, 1 mM DTT, 0.1 mg/ml BSA, 9% glycerol, 37 C. The conditions noted are these: protein: recombinant; tags: N-MBP, C-6xHis; label: 5' 32P; intramolecular G4. This is another data set of the same source.

In series [6] the target is T1, BRCA2OB. The series can be described thus: EMSA; 100 mM KCl; rough estimate, max protein 1 uM; EMSA: 10 nM probe, 50 mM Tris-HCl pH 7.5, 100 mM KCl, 2 mM b-ME, 10% glycerol, probe pre-incubated 37 C, gel 4 C (RAD51: +1 mM MgCl2, 2 mM ATP); smFRET: 50 mM Tris-HCl pH 7.9, 100 mM KCl, 20 mM NaCl, 1 mM DTT, 0.1 mg/ml BSA, 9% glycerol, 37 C. Particulars: protein: recombinant, tags: N-MBP, C-6xHis, label: 5' 32P.

A further series concerns the target T5, POT1OB (human, UniProt Q9NUX5 10-278).
T5 sequence: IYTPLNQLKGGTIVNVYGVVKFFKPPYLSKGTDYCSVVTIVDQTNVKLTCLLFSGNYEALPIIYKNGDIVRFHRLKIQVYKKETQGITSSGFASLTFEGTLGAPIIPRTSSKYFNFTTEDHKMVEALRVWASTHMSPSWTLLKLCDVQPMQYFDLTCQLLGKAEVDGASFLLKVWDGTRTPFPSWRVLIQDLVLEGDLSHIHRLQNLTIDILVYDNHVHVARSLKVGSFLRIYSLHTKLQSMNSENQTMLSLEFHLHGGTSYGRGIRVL
The series can be described thus: EMSA; 100 mM KCl; EMSA: 10 nM probe, 50 mM Tris-HCl pH 7.5, 100 mM KCl, 2 mM b-ME, 10% glycerol, probe pre-incubated 37 C, gel 4 C (RAD51: +1 mM MgCl2, 2 mM ATP); smFRET: 50 mM Tris-HCl pH 7.9, 100 mM KCl, 20 mM NaCl, 1 mM DTT, 0.1 mg/ml BSA, 9% glycerol, 37 C. Particulars: protein: recombinant, tags: N-MBP, C-6xHis, label: 5' 32P.

A further series has as its target RAD51 (human, UniProt Q06609 1-339). The series can be described thus: EMSA; 250 nM RAD51, 2 mM ATP, no BRCA2OB; EMSA: 10 nM probe, 50 mM Tris-HCl pH 7.5, 100 mM KCl, 2 mM b-ME, 10% glycerol, probe pre-incubated 37 C, gel 4 C (RAD51: +1 mM MgCl2, 2 mM ATP); smFRET: 50 mM Tris-HCl pH 7.9, 100 mM KCl, 20 mM NaCl, 1 mM DTT, 0.1 mg/ml BSA, 9% glycerol, 37 C. Particulars: protein: commercial; label: 5' 32P; intramolecular G4 (dynamic).

Chain of RAD51 (Q06609 whole entry): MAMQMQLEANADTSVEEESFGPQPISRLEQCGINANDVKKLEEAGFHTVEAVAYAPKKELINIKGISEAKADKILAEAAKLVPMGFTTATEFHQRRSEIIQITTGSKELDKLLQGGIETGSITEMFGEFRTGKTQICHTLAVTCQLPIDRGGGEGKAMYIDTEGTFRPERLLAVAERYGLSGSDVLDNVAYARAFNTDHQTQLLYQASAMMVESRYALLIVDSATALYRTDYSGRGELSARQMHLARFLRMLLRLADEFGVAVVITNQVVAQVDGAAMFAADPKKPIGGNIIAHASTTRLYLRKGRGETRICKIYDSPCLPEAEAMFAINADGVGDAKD

B1: TelG5-G3 (structured_DNA)
DNA: GGTTAGGGTTAGGGTTAGTGTTAGGGTTAG
In the case of B1, the binding signal with BRCA2OB [1] is 3 fold vs TelG5.

B2: TelG5TT (structured_DNA)
DNA: GGTTTGGGTTGGGTTGGGTTGGGTTTG
Take B2: the binding signal in the series with BRCA2OB [2] was 13 fold vs TelG5.

B3: TelG5CTA smFRET (mixed)
DNA 1: GCGTGGCACCGGTAATAGGAGATAGGAGAGGCTAGGGCTAGGGCTAGGGCTAGGGCTAG
DNA 2: TCTCCTATCTCCTATTACCGGTGCCACGC
modifications: 3' amino; stem 5' amino
Consider B3, for which the binding result in the series with BRCA2OB [3] was “no binding”.

B4: TelG-CTA (structured_DNA)
DNA: GCTAGGGCTAGGGCTAGGGCTAGGGCTAG
With B4, the binding result in the series with BRCA2OB [4] is reported as “no binding”.

B5: telomeric G-rich strand (40 nt) (ssDNA)
DNA: GCCCGCGGTTAGGGTTAGGGTTAGGGTTAGGGGTGAATTC
As for B5, the binding result in the series with GST-B2-9 is on record as “no binding”; in the series with GST-B2-7, “no binding”; in the series with GST-B2-8 it was “binds”.

B6: TelG5T2G4 (structured_DNA)
DNA: GGTTGGGGTTGGGGTTGGGGTTGGGGTTGG
The Kd is the constant that tells how readily two partners part at equilibrium. Regarding B6, the binding signal with BRCA2OB [5] was approximately 3 fold vs TelG5. The Kd with BRCA2OB [6] (intramolecular G4) is 1.4 µM. Further, the binding result in the series with POT1OB (intramolecular G4) was “no binding”.

B7: telomeric C-rich strand (40 nt) (ssDNA)
DNA: GAATTCACCCCTAACCCTAACCCTAACCCTAACCGCGGGC
As for B7, the binding result with GST-B2-9, with GST-B2-7 and in the series with GST-B2-8 was “no binding” each time.

B8: TelG5 (structured_DNA)
DNA: GGTTAGGGTTAGGGTTAGGGTTAGGGTTAG
As to B8, the binding result with RAD51 and in the series with POT1OB (intramolecular G4 (dynamic)) was “binds” each time. Also, the Kd in the series with BRCA2OB [6] (intramolecular G4 (dynamic)) is 4.4 µM.
